According to patent US20210388105A1 (ELPISCIENCE SUZHOU BIOPHARMA, published 2021):

T1: KW27-17 (human CD39 mutant, C-terminal EGFP) (human, UniProt P49961 1-510)
T1 construct: expressed on HEK293F cells; not shown: C-terminal EGFP fusion (vector pCMV3-GFPSpark)
T1 chain: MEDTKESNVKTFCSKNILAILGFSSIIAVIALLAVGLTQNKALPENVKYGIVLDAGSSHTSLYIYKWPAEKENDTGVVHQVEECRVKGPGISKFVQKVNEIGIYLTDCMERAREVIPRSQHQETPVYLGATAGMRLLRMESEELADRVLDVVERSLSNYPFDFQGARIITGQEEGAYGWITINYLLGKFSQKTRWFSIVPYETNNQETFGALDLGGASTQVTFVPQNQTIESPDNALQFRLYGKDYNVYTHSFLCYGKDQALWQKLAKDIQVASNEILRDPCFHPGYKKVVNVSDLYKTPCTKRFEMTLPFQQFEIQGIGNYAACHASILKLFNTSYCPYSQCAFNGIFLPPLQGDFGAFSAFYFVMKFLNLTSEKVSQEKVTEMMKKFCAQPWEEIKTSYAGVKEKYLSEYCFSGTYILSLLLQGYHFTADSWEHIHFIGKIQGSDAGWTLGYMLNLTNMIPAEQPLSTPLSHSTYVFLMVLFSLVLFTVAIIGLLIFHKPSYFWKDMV

T2: KW27-7 (human CD39 mutant, C-terminal EGFP) (human, UniProt P49961 1-510)
T2 construct: expressed on HEK293F cells; K188R and residues 190-206 substituted by KTPGGS; not shown: C-terminal EGFP fusion (vector pCMV3-GFPSpark)
T2 chain: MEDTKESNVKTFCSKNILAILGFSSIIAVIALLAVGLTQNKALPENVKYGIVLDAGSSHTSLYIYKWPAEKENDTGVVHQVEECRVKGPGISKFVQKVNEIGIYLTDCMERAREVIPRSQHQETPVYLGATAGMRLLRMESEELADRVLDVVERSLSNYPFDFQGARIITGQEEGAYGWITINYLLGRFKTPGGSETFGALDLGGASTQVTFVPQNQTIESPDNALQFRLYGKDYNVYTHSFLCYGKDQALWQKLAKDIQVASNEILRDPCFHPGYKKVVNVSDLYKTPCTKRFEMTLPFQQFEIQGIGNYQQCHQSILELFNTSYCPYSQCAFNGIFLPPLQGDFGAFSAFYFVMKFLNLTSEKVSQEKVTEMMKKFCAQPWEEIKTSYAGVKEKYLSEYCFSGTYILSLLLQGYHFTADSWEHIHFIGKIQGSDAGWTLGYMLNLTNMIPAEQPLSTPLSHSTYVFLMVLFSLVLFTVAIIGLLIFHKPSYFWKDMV

T3: KW27-1 (human CD39 mutant, C-terminal EGFP) (human, UniProt P49961 1-510)
T3 construct: expressed on HEK293F cells; not shown: C-terminal EGFP fusion (vector pCMV3-GFPSpark)
T3 chain: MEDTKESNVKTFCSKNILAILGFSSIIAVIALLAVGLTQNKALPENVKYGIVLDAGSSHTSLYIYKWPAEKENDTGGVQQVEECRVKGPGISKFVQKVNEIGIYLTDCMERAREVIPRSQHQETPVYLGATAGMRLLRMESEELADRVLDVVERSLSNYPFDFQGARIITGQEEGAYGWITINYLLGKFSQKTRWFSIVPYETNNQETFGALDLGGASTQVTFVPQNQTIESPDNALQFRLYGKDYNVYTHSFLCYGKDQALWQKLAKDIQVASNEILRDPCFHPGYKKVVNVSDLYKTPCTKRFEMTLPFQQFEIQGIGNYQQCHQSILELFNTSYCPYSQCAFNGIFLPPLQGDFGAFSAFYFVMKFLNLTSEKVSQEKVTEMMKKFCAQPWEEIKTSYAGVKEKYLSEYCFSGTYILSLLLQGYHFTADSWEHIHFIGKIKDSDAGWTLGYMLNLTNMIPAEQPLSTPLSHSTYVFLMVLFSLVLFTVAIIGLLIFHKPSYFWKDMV

T4: KW27-18 (human CD39 mutant, C-terminal EGFP) (human, UniProt P49961 1-510)
T4 construct: expressed on HEK293F cells; not shown: C-terminal EGFP fusion (vector pCMV3-GFPSpark)
T4 chain: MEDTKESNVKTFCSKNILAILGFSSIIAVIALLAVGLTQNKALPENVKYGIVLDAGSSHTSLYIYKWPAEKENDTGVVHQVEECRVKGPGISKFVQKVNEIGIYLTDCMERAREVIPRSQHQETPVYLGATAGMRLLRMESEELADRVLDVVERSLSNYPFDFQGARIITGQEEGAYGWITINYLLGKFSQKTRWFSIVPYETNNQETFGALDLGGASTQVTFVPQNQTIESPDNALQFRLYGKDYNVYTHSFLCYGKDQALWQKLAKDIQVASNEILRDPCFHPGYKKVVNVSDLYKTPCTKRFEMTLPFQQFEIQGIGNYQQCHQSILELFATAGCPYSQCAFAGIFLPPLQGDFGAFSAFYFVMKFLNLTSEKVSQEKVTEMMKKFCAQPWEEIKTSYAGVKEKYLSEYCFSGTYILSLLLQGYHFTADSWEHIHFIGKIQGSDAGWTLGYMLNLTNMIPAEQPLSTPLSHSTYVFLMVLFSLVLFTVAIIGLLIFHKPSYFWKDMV


Legend:
Assay in all cases: FACS, mutant-EGFP on HEK293F cells
[1] = biological target: T1, KW27-17 (human CD39 mutant, C-terminal …)
Method: (§1) Briefly, the human CD39 mutants were generated by gene synthesis and then cloned into an expression vector pCMV3-GFPSpark. The vectors containing the validated mutated sequences were prepared and transfected into HEK293F cells. Three days post transfection, the cells were collected to testing EGFP for transgene expression. A range of dosages of antibodies (start from 100 nM, 3-folds dilution, 11 points) were tested on the 20 generated mutants and stained by AlexFluor647 labelled anti-hIgG by FACS. Antibody binding was descripted as relative binding which is derived from AlexFluor647 intensity divided by GFP intensity.

[2] = biological target: T2, KW27-7 (human CD39 mutant, C-terminal …)
Method: as §1

[3] = biological target: T3, KW27-1 (human CD39 mutant, C-terminal …)
Method: as §1

[4] = biological target: T4, KW27-18 (human CD39 mutant, C-terminal …)
Method: as §1

| Binder | binding result [1] | binding result [2] | binding result [3] | binding result [4] |
| --- | --- | --- | --- | --- |
| Antibody 9-8B (antibody, V domains shown) VH: QIQLVQSGPELKKPGETVKISCKASGYTFTHYGMNWVKQAPGKGLKWMGWINTYTGELTYADDFKGRFAFSLETSASTAYLQINNLKNEDTATYFCARRAYYRYDYVMDYWGQGTSVTVSS VL: DIVMTQSQKFMSTSVGDRVSVTCKASHNVGTNVAWYQQKPGQSPKALIYSASYRYSGVPGRFTGSGSGTDFTLTISNVQSEDLAEYFCHQYNNYPYTFGGGTKLEIK | binds | binds | binds | binds |
| c35 (antibody, V domains shown, its making is not described; also called chimeric antibody c35) VH: EVRLQQSGAELVKPGASVKLSCTASGFNIEDTYVHWMKQRPEQGLEWIGRIDPAIDNSKYDPKFQGKATITAVSSSNTAYLQLSSLTSEDTAVYYCALYDGYNVYAMDYWGQGTSVTVSS VL: DIVMTQAAFSNPVTLGTSASISCRSSKNLLHSNGITYLYWYLQRPGQSPQLLIYRASTLASGVPNRFSGSESGTDFTLRISRVEAEDVGVYYCAQLLELPHTFGGGTKLEIK | binds | binds | binds | binds |
| c34 (antibody, V domains shown, its making is not described; also called chimeric antibody c34) VH: EIQVQQSGPELVKPGASVKVSCKASGYSFTDYNMYWVKQSHGKSLEWIGFIDPYNGYTSYNQKFKGKATLTIDKSSSTAFMHLNSLTSEDSAVYYCAIYGYDDAYYFDYWGQGTTLTVSS VL: QIVLTQSPAIMSASPGEKVTITCSATSSVSYMHWFRQKPGTSPKLWIYSTSNLASGVPARFSGSGSGTSYSLTISRMAAEDAATYYCQQRITYPFTFGSGTKLEIT | binds | binds | binds | binds |

The next lines start with the values.

| binding result [1] | binding result [2] | binding result [3] | binding result [4] | Binder |
| --- | --- | --- | --- | --- |
| binds | binds | binds | binds | Antibody T895 (antibody, V domains shown, also called 31895) VH: EVQLQQSGPELVKPGASVKMSCKASGYTFTDYNMHWVKQSHGRTLEWIGYIVPLNGGSTFNQKFKGRATLTVNTSSRTAYMELRSLTSEDSAAYYCARGGTRFAYWGQGTLVTVSA VL: not shown |
| binds | binds | binds | binds | hu23.H5L5 (antibody, V domains shown, humanized c23) VH: QVQLVQSGAEVKKPGASVKVSCKASGYNLKDTFLHWVRQAPGQGLEWMGRIDPANGNIKYDPKFQGRVTITADTSANTAYMELISLRSEDTAVYYCANSPYYYGSGYRIFDVWGQGTTVTVSS VL: QIVLTQSPATLSLSPGERATLSCSAFSSVNYMHWYQQKPGQAPRLLIYTTSNLASGIPTRFSGSGSGTSYTLTISSLEPEDFAVYYCQQRSTYPFTFGQGTKLEIK |
